Measurements: patent US20200407722, “DNA APTAMER […] BINDING TO TB7.7, AND USE […]” (MD APTUS INC., published 2020)

Columns and labels:
[1] = molecular target: T1, TB7.7 (Mycobacterium tuberculosis H37Rv, UniProt P9WJ11 P9WJ11:1-81); assay: fluorescence of Cy3-aptamer bound to TB7.7 magnetic beads; 20 mM Tris, 50 mM NaCl, 5 mM KCl, 5 mM MgCl2, pH 8.0; settings: tags: His6-tag, pET32a vector, expressed in E. coli BL21(DE3); label: Cy3
T1 sequence: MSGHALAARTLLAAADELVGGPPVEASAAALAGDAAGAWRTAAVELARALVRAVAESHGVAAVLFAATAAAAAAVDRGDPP
Procedure: 16 μg of TB7.7 was mixed with 10 μL of magnetic beads, and then incubated in 100 μL of a binding buffer (20 mM Tris, 50 mM NaCl, 5 mM KCl, 5 mM MgCl₂, pH 8.0) for 1 hour. To separate unbound TB7.7, washing was performed twice with a binding buffer. Subsequently, the resulting mixture was incubated together with various concentrations of a Cy3-labeled aptamer for an hour, and an unbound aptamer was removed by washing. The amount of Cy3-labeled ssDNA aptamer bound to the magnetic beads with TB7.7 immobilized thereon was measured by fluorescence measurement (1420 Victor Multilabel counter, PerkinElmer, USA) by separating only Cy3-labeled ssDNA bound to TB7.7.

[2] = molecular target: CFP10 (Mycobacterium tuberculosis, UniProt P9WNK5 P9WNK5:2-100); assay: impedance biosensor, 10 pM protein in PBS; aptamer taken as TG4
Text: (§1) At this time, each protein was mixed at a concentration of 10 pM with PBS and used for detection.

[3] = molecular target: ESAT6 (Mycobacterium tuberculosis, UniProt P9WNK7 P9WNK7:2-95); assay: as above
Text: as §1

B1: TG6 (ssDNA)
DNA: CACCTAATACGACTCACTATAGCGGATCCGACACGAAGGATACTCAGTAGTACCCAGGTTGGTAGGGTAGCCTGGCTCGAACAAGCTTGC
B1 gave a Kd [1] of 34.3 nM.

B2: TG4 (ssDNA)
DNA: CACCTAATACGACTCACTATAGCGGATCCGAAAGTTGTTAGTAGACTTAGGGGAGGGTTAAAGTGGGGTGGCTGGCTCGAACAAGCTTGC
B2 showed a Kd [1] of 37.5 nM.

B3: TG4 immobilized on gold electrode (ssDNA)
DNA: CACCTAATACGACTCACTATAGCGGATCCGAAAGTTGTTAGTAGACTTAGGGGAGGGTTAAAGTGGGGTGGCTGGCTCGAACAAGCTTGC
B3: no binding [2]; no binding [3].

B4: TG5 (ssDNA)
DNA: CACCTAATACGACTCACTATAGCGGATCAGAATTTCTGTAATTAAGCGATAAATTGCTTAATAGGCACTCTCTGGCTCGAACAAGCTTGC
B4 was tested, and the Kd [1] was 106 nM.
